Results from the Human Domainome abundance scans (Beltran et al. 2025).
± gives the uncertainty stated by the source.

Test: abundance fitness (aPCA) (normalised: wild type 0, dead -1); higher = more abundant; growth selection in yeast, the domain comes from the species named
Details: Homo sapiens

Substance | abundance fitness
Transcriptional activator Myb A167C, P10242 | -0.17 ± 0.12
Transcriptional activator Myb A167D, P10242 | -0.177 ± 0.16
Transcriptional activator Myb A167E, P10242 | 0.009 ± 0.13
Transcriptional activator Myb A167F, P10242 | -0.092 ± 0.12
Transcriptional activator Myb A167G, P10242 | 0.045 ± 0.06
Transcriptional activator Myb A167H, P10242 | 0.258 ± 0.24
Transcriptional activator Myb A167I, P10242 | -0.253 ± 0.22
Transcriptional activator Myb A167K, P10242 | -0.124 ± 0.11
Transcriptional activator Myb A167L, P10242 | -0.224 ± 0.079
Transcriptional activator Myb A167M, P10242 | -0.313 ± 0.15
Transcriptional activator Myb A167N, P10242 | -0.058 ± 0.11
Transcriptional activator Myb A167P, P10242 | 0.037 ± 0.12
Transcriptional activator Myb A167Q, P10242 | 0.015 ± 0.14
Transcriptional activator Myb A167R, P10242 | -0.146 ± 0.069
Transcriptional activator Myb A167S, P10242 | -0.095 ± 0.09
Transcriptional activator Myb A167T, P10242 | -0.126 ± 0.12
Transcriptional activator Myb A167V, P10242 | -0.083 ± 0.1
Transcriptional activator Myb A167W, P10242 | -0.27 ± 0.063
Transcriptional activator Myb A167Y, P10242 | -0.172 ± 0.12
Transcriptional activator Myb A170C, P10242 | -0.137 ± 0.13
Transcriptional activator Myb A170D, P10242 | -0.692 ± 0.12
Transcriptional activator Myb A170E, P10242 | -0.285 ± 0.12

Substance | abundance fitness
Transcriptional activator Myb A170F, P10242 | -0.896 ± 0.19
Transcriptional activator Myb A170G, P10242 | -0.229 ± 0.058
Transcriptional activator Myb A170H, P10242 | -0.716 ± 0.26
Transcriptional activator Myb A170I, P10242 | -1.45 ± 0.42
Transcriptional activator Myb A170K, P10242 | -0.581 ± 0.14
Transcriptional activator Myb A170L, P10242 | -0.743 ± 0.082
Transcriptional activator Myb A170M, P10242 | -0.393 ± 0.11
Transcriptional activator Myb A170N, P10242 | -0.655 ± 0.28
Transcriptional activator Myb A170P, P10242 | -0.809 ± 0.18
Transcriptional activator Myb A170Q, P10242 | -0.056 ± 0.094
Transcriptional activator Myb A170R, P10242 | -0.516 ± 0.059
Transcriptional activator Myb A170S, P10242 | -0.038 ± 0.087
Transcriptional activator Myb A170T, P10242 | -0.771 ± 0.12
Transcriptional activator Myb A170V, P10242 | -0.428 ± 0.063
Transcriptional activator Myb A170W, P10242 | -0.811 ± 0.12
Transcriptional activator Myb A170Y, P10242 | -1.08 ± 0.18
Transcriptional activator Myb A180C, P10242 | -0.021 ± 0.12
Transcriptional activator Myb A180D, P10242 | -0.022 ± 0.12
Transcriptional activator Myb A180E, P10242 | 0.062 ± 0.098
Transcriptional activator Myb A180G, P10242 | -0.244 ± 0.049
Transcriptional activator Myb A180H, P10242 | -0.23 ± 0.097
Transcriptional activator Myb A180I, P10242 | -0.005 ± 0.32

Substance | abundance fitness
Transcriptional activator Myb A180K, P10242 | -0.266 ± 0.082
Transcriptional activator Myb A180L, P10242 | -0.111 ± 0.073
Transcriptional activator Myb A180M, P10242 | -0.058 ± 0.16
Transcriptional activator Myb A180N, P10242 | -0.134 ± 0.33
Transcriptional activator Myb A180P, P10242 | -0.76 ± 0.12
Transcriptional activator Myb A180Q, P10242 | -0.002 ± 0.12
Transcriptional activator Myb A180R, P10242 | -0.327 ± 0.051
Transcriptional activator Myb A180S, P10242 | -0.051 ± 0.083
Transcriptional activator Myb A180T, P10242 | -0.174 ± 0.078
Transcriptional activator Myb A180W, P10242 | -0.28 ± 0.11
Transcriptional activator Myb A180Y, P10242 | -0.803 ± 0.43
Transcriptional activator Myb D152A, P10242 | -0.24 ± 0.066
Transcriptional activator Myb D152C, P10242 | -0.833 ± 0.14
Transcriptional activator Myb D152E, P10242 | 0.105 ± 0.077
Transcriptional activator Myb D152F, P10242 | -0.752 ± 0.12
Transcriptional activator Myb D152G, P10242 | -0.452 ± 0.053
Transcriptional activator Myb D152H, P10242 | -0.695 ± 0.22
Transcriptional activator Myb D152K, P10242 | -0.311 ± 0.1
Transcriptional activator Myb D152L, P10242 | -0.249 ± 0.075
Transcriptional activator Myb D152M, P10242 | -0.381 ± 0.15
Transcriptional activator Myb D152N, P10242 | -0.227 ± 0.074
Transcriptional activator Myb D152Q, P10242 | -0.065 ± 0.12

Substance | abundance fitness
Transcriptional activator Myb D152R, P10242 | -0.519 ± 0.068
Transcriptional activator Myb D152S, P10242 | -0.287 ± 0.072
Transcriptional activator Myb D152T, P10242 | -0.138 ± 0.082
Transcriptional activator Myb D152V, P10242 | -0.304 ± 0.067
Transcriptional activator Myb D152W, P10242 | -0.403 ± 0.098
Transcriptional activator Myb D152Y, P10242 | -0.38 ± 0.12
Transcriptional activator Myb D178N, P10242 | -0.533 ± 0.35
Transcriptional activator Myb E149D, P10242 | -0.008 ± 0.27
Transcriptional activator Myb E149G, P10242 | -0.143 ± 0.16
Transcriptional activator Myb E149L, P10242 | 0.009 ± 0.22
Transcriptional activator Myb E149N, P10242 | -0.526 ± 0.35
Transcriptional activator Myb E149R, P10242 | -0.203 ± 0.12
Transcriptional activator Myb E149S, P10242 | -0.188 ± 0.4
Transcriptional activator Myb E149T, P10242 | -0.634 ± 0.43
Transcriptional activator Myb E149W, P10242 | -0.719 ± 0.47
Transcriptional activator Myb E150A, P10242 | 0.099 ± 0.075
Transcriptional activator Myb E150C, P10242 | -0.219 ± 0.1
Transcriptional activator Myb E150D, P10242 | -0.152 ± 0.095
Transcriptional activator Myb E150F, P10242 | -0.129 ± 0.16
Transcriptional activator Myb E150H, P10242 | -0.41 ± 0.15
Transcriptional activator Myb E150I, P10242 | -0.172 ± 0.12
Transcriptional activator Myb E150K, P10242 | 0.117 ± 0.11

Substance | abundance fitness
Transcriptional activator Myb E150L, P10242 | -0.17 ± 0.064
Transcriptional activator Myb E150M, P10242 | -0.097 ± 0.086
Transcriptional activator Myb E150N, P10242 | -0.004 ± 0.15
Transcriptional activator Myb E150P, P10242 | -0.468 ± 0.12
Transcriptional activator Myb E150Q, P10242 | 0.026 ± 0.14
Transcriptional activator Myb E150R, P10242 | 0 ± 0.061
Transcriptional activator Myb E150T, P10242 | -0.103 ± 0.1
Transcriptional activator Myb E150V, P10242 | -0.207 ± 0.061
Transcriptional activator Myb E150W, P10242 | -0.208 ± 0.083
Transcriptional activator Myb E151A, P10242 | -0.597 ± 0.066
Transcriptional activator Myb E151C, P10242 | -1.1 ± 0.21
Transcriptional activator Myb E151D, P10242 | -0.348 ± 0.15
Transcriptional activator Myb E151F, P10242 | -0.927 ± 0.19
Transcriptional activator Myb E151G, P10242 | -0.815 ± 0.056
Transcriptional activator Myb E151H, P10242 | -0.57 ± 0.13
Transcriptional activator Myb E151I, P10242 | -0.49 ± 0.14
Transcriptional activator Myb E151L, P10242 | -0.482 ± 0.069
Transcriptional activator Myb E151M, P10242 | -0.624 ± 0.12
Transcriptional activator Myb E151N, P10242 | -0.674 ± 0.12
Transcriptional activator Myb E151P, P10242 | -0.758 ± 0.15
